Source: patent US20230250190A1 (published 2023)
Positions count from the first letter of the chain named.

T1: T8 (Tn-MUC1) (PAPGST(α-GalNAc)APPAHGVTSAPDT(α-GalNAc)RPAPG-OH)
T1 peptide: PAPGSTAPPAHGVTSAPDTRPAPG

T2: T9 (Tn-MUC1) (PAPGSTAPPAHGVT(α-GalNAc)S(α-GalNAc)APDTRPAPG-OH)
T2 peptide: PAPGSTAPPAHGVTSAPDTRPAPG

T3: T11 (Tn-MUC1) (PAPGSTAPPAHGVT(α-GalNAc)SAPDT(α-GalNAc)RPAPG-OH)
T3 peptide: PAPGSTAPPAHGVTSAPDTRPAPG

T4: T4 (Tn-MUC1) (PAPGSTAPPAHGVT(α-GalNAc)SAPDTRPAPG-OH)
T4 peptide: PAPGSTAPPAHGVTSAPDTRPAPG

T5: S9 (sTn-MUC1) (PAPGSTAPPAHGVT(Neu5Ac-α(2-6)-GalNAc)S(Neu5Ac-a(2-6)-GalNAc)APDTRPAPG-OH)
T5 peptide: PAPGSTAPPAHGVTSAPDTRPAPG

T6: S4 (sTn-MUC1) (PAPGSTAPPAHGVT(Neu5Ac-α(2-6)-GalNAc)SAPDTRPAPG-OH)
T6 peptide: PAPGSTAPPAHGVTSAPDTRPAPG

T7: S11 (sTn-MUC1) (PAPGSTAPPAHGVT(Neu5Ac-α(2-6)-GalNAc)SAPDT(Neu5Ac-a(2-6)-GalNAc)RPAPG-OH)
T7 peptide: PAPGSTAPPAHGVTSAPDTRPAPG

T8: T3 (Tn-MUC1) (PAPGST(α-GalNAc)APPAHGVTSAPDTRPAPG-OH)
T8 peptide: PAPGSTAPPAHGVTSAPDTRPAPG

T9: T7 (Tn-MUC1) (PAPGS(α-GalNAc)T(α-GalNAc)APPAHGVTSAPDTRPAPG-OH)
T9 peptide: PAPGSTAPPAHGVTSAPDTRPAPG

B1: 13 (antibody, V domains shown)
VH: QVQLVQSGAEVKKPGASLKVSCKASGYTFTNYYIQWVRQAPGQGLEWMGVINPYDGSTNYAQKFQGRVTLTRDTSTTTVYMELSSLRSDDTAVYYCARDYMIGYVVFDYWGQGTLVTVSS
B2: SEQ ID NO 5 (bivalent monospecific MUC1 IgG) (antibody, V domains shown)
VH: B1 VH with L18V, A24T, N31R, L70V, T77F, D89E, I102R, V106I
VL: not shown
B3: 106 (antibody, V domains shown)
VH: B1 VH with V11M, L18V, V20I, K63R, D89E, Y109F
B4: 174 (antibody, V domains shown)
VH: EVQLVESGAEVKKPGASVKVSCKASGYTFNRYYLHWVRQAPGQGLEWMGVINPYDGSTNYAQKFRGRITMTRDTSTNTVYMELSSLRSEDTAVYFCARDAMEGDSYFDKWGQGTLVTVSS
B5: SEQ ID NO 178 (bivalent monospecific MUC1 IgG) (antibody, V domains shown)
VH: QVQLVQSGAEVKKPGASVKVSCKASGYTFNRHYIQWVRQAPGQGLEWMGTINPYDGSTFYAQKFQDRVTMTRDTSTSTVYMDLNSLKSEDTAVYYCARDYMRGHVLFDYWGQGTLVTVSS
VL: not shown
B6: SEQ ID NO 9 (bivalent monospecific MUC1 IgG) (antibody, V domains shown)
VH: B1 VH with L18V, T30N, N31R, Y32H, V50T, N59H, D89E
VL: not shown
B7: 86 (antibody, V domains shown)
VH: QVQLVQSGAEVKKPGASVKVSCKASGYPFINYYIQWVRQAPGQGLEWMGVINPFDGSTNYAQKFQGRVTVTRDTSTSTVFMDLSSLRSEDTAVYYCARDNMIGYVLFDYWGQGTLVTVSS
B8: SEQ ID NO 29 (bivalent monospecific MUC1 IgG) (antibody, V domains shown)
VH: B7 VH with P28S, N31H, Q35H, G66D, Y109D
VL: not shown
B9: SEQ ID NO 57 (bivalent monospecific MUC1 IgG) (antibody, V domains shown)
VH: B7 VH with Q6E, A9T, P28S, N31H, Q35H, Q43R, K63N, Y109H
VL: not shown
B10: 90 (antibody, V domains shown)
VH: B7 VH with P28T, Y32H, Q35H, M81L
B11: SEQ ID NO 78 (bivalent monospecific MUC1 IgG) (antibody, V domains shown)
VH: B7 VH with A16T, P28S, N31H, Q35H, M48V, T78A
VL: not shown
B12: SEQ ID NO 45 (bivalent monospecific MUC1 IgG) (antibody, V domains shown)
VH: B7 VH with Q6E, A9T, P28S, N31H, Q35H, Q43R, Y60S, K63N, I102L, Y109H
VL: not shown
B13: 82 (antibody, V domains shown)
VH: B7 VH with P28T, I30T, N31S, Q35H, F54Y, G56S, V70M
B14: 25 (antibody, V domains shown)
VH: QVQLVESGAEVKKPGASVKVSCKASGYTFARYYVHWVRQAPGQGLEWMGLINPYGGATNYAQNFQGRVTMTRDTSTSTVYMELSSLRSEDTAVYYCARDAMGGDSYFDYWGQGTLVTVSS

How the values were obtained:
Assay in all cases: glycopeptide array
T8 (Tn-MUC1) = molecular target: T1, T8 (Tn-MUC1)
T9 (Tn-MUC1) = molecular target: T2, T9 (Tn-MUC1)
T11 (Tn-MUC1) = molecular target: T3, T11 (Tn-MUC1)
T4 (Tn-MUC1) = molecular target: T4, T4 (Tn-MUC1)
S9 (sTn-MUC1) = molecular target: T5, S9 (sTn-MUC1)
S4 (sTn-MUC1) = molecular target: T6, S4 (sTn-MUC1)
S11 (sTn-MUC1) = molecular target: T7, S11 (sTn-MUC1)
T3 (Tn-MUC1) = molecular target: T8, T3 (Tn-MUC1)
T7 (Tn-MUC1) = molecular target: T9, T7 (Tn-MUC1)

| Binder | EC50 (T8 (Tn-MUC1)) | EC50 (T9 (Tn-MUC1)) | EC50 (T11 (Tn-MUC1)) | EC50 (T4 (Tn-MUC1)) | EC50 (S9 (sTn-MUC1)) | EC50 (S4 (sTn-MUC1)) | EC50 (S11 (sTn-MUC1)) | EC50 (T3 (Tn-MUC1)) | EC50 (T7 (Tn-MUC1)) |
| --- | --- | --- | --- | --- | --- | --- | --- | --- | --- |
| B1 | 0.145 µg/mL | 0.134 µg/mL | 0.158 µg/mL | 0.153 µg/mL | 0.279 µg/mL | 0.156 µg/mL | – | – | – |
| B2 | 0.123 µg/mL | 0.113 µg/mL | 0.127 µg/mL | 0.116 µg/mL | 0.137 µg/mL | 0.12 µg/mL | 0.296 µg/mL | – | – |
| B3 | 0.036 µg/mL | 0.032 µg/mL | 0.043 µg/mL | 0.037 µg/mL | – | – | – | 99.3 µg/mL | – |
| B4 | 0.174 µg/mL | 0.144 µg/mL | 0.192 µg/mL | 0.178 µg/mL | – | – | – | – | – |
| B5 | 0.095 µg/mL | 0.09 µg/mL | 0.108 µg/mL | 0.103 µg/mL | 0.108 µg/mL | 0.098 µg/mL | 0.335 µg/mL | – | – |
| B6 | 0.034 µg/mL | 0.039 µg/mL | 0.041 µg/mL | 0.031 µg/mL | 0.046 µg/mL | 0.031 µg/mL | 0.053 µg/mL | 21.6 µg/mL | 64 µg/mL |
| B7 | 0.061 µg/mL | 0.05 µg/mL | 0.068 µg/mL | 0.057 µg/mL | 0.105 µg/mL | 0.074 µg/mL | 13.1 µg/mL | – | – |
| B8 | 0.121 µg/mL | 0.118 µg/mL | 0.126 µg/mL | 0.104 µg/mL | 0.22 µg/mL | 0.118 µg/mL | 6.96 µg/mL | – | – |
| B9 | 0.114 µg/mL | 0.109 µg/mL | 0.123 µg/mL | 0.112 µg/mL | 0.16 µg/mL | 0.119 µg/mL | 0.939 µg/mL | – | – |
| B10 | 0.12 µg/mL | 0.102 µg/mL | 0.126 µg/mL | 0.118 µg/mL | 0.207 µg/mL | 0.126 µg/mL | 67.4 µg/mL | – | – |
| B11 | 0.032 µg/mL | 0.032 µg/mL | 0.041 µg/mL | 0.034 µg/mL | 0.067 µg/mL | 0.039 µg/mL | 0.477 µg/mL | 37.9 µg/mL | – |
| B12 | 0.088 µg/mL | 0.083 µg/mL | 0.093 µg/mL | 0.084 µg/mL | 0.135 µg/mL | 0.089 µg/mL | 4.06 µg/mL | 52.2 µg/mL | – |
| B13 | 0.196 µg/mL | 0.167 µg/mL | 0.227 µg/mL | 0.145 µg/mL | 0.83 µg/mL | 0.173 µg/mL | 58.6 µg/mL | – | – |
| B14 | 0.113 µg/mL | 0.119 µg/mL | 0.129 µg/mL | 0.1 µg/mL | – | – | – | 38.6 µg/mL | – |
